The record followed here is patent US20260078171A1.

Assay [1] addresses A021 (SARS-related coronavirus A021).
Assay [2] has as its target Civet 007-2004 (civet SARS-related coronavirus 007-2004).
Assay [3] deals with GD-Pangolin (GD-Pangolin coronavirus).
For assay [4], the target named is SHC014 (bat coronavirus Rs SHC014).
In assay [5] the target is LYRa11 (bat coronavirus LYRa11).
In assay [6] the target is WIV1 (bat coronavirus WIV1).
The target in assay [7] is CS24 (SARS-related coronavirus CS24).
Assay [8] addresses Frankfurt 1 (SARS-CoV isolate Frankfurt 1).
Assay [9] deals with Rs4231 (bat coronavirus Rs4231).
Assay [10] deals with RaTG13 (bat coronavirus RaTG13).

VYD224 (antibody), sequence (VH): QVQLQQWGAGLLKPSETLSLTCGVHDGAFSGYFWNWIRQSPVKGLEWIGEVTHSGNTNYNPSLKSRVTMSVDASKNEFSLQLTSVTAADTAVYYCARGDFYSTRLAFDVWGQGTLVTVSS
VYD224 (antibody), sequence (VL): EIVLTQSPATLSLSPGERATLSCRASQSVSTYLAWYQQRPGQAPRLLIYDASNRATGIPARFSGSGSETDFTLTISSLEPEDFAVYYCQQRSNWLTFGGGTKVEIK
VYD222 (antibody), sequence (VH): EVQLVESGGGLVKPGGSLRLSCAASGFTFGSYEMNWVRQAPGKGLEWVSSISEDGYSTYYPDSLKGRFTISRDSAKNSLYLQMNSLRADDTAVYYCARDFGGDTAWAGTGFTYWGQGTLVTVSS
VYD222 (antibody), sequence (VL): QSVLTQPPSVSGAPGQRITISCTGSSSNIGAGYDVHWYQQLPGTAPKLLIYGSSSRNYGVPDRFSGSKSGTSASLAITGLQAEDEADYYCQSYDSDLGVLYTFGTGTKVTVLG
ADI-58125 (antibody), sequence (VH): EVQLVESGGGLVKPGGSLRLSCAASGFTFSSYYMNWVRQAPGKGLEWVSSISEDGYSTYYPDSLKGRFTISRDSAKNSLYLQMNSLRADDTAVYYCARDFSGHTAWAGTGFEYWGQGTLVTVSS
ADI-58125 (antibody), sequence (VL): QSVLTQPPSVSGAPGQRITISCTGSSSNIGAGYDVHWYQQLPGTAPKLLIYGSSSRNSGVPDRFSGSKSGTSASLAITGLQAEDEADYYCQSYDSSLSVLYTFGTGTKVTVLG

Turning to VYD222 (antibody), the KD App in assay [1] is 0.24 nM; in [2] it was 0.23 nM; in [3], 0.15 nM; with SARS-CoV-2 (SARS-CoV-2), 0.54 nM; in [4], 0.74 nM; in assay [5], 0.67 nM. The KD App worked out at 0.97 nM in assay [6]; 0.45 nM in assay [7]; 0.44 nM with SARS-CoV-1 (SARS-CoV); 0.9 nM in assay [8]; 0.49 nM in assay [9].
Take ADI-58125 (antibody): the KD App was found to be 1.07 nM in assay [1]; 0.57 nM in [2]; 1.03 nM in assay [3]; 3.2 nM with SARS-CoV-2 (SARS-CoV-2); 2.72 nM in [4]; 0.96 nM in assay [5]. Also, the KD App in assay [6] worked out at 1.32 nM; in assay [7], 0.79 nM; in the assay with SARS-CoV-1 (SARS-CoV) it was 1.02 nM; in [8] it was 1.83 nM; in [9], 1.53 nM.
VYD224 (antibody): the KD App in [1] stood at 13.5 nM; in assay [2], 9.13 nM; in assay [3], 1.63 nM; with SARS-CoV-2 (SARS-CoV-2) it was 1.68 nM; in assay [4], 12.3 nM; in assay [5], 0.32 nM. In addition, the KD App in assay [6] is 0.33 nM; in [7] it was 15.9 nM; with SARS-CoV-1 (SARS-CoV) it was 15.6 nM; in assay [8], 0.93 nM; in assay [9] it was 10.8 nM; in assay [10], 0.87 nM.
